# Test results: PMC6318295, “Plant HP1 protein ADCP1 links multivalent H3K9 methylation readout to heterochromatin formation” (Cell Research, 2018)
# T1: ADCP1 Agenet 1/2 domain (amino acids 31-177) (Arabidopsis, UniProt Q500V5 31-177)
# T1 chain: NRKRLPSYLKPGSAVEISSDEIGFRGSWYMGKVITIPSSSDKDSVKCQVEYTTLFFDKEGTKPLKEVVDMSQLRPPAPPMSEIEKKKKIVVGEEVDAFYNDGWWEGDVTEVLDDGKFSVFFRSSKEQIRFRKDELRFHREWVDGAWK
# Key:
# [1] = target: ADCP1 Agenet 3/4 domain (amino acids 201-355) (Arabidopsis thaliana) (UniProt Q500V5); test: ITC; H3 peptides (usually 1 mM) titrated into ADCP1 tandem Agenet domains (0.05-0.1 mM); 25 °C; 100 mM NaCl, 20 mM Tris-HCl, pH 7.5; MicroCal PEAQ-ITC; 'One Set of Sites' fitting model
# Chain of ADCP1 Agenet 3/4 domain (amino acids 201-355) (Arabidopsis thaliana) (Q500V5 201-355): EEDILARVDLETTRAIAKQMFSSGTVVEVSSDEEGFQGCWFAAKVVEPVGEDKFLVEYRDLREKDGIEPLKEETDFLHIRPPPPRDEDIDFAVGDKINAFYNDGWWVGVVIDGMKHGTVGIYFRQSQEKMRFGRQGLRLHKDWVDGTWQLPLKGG
# [2] = target: ADCP1 Agenet 1/2 domain (amino acids 31-177) (Arabidopsis thaliana) (UniProt Q500V5); test: as above
# [3] = target: ADCP1 (Agenet Domain Containing Protein 1) Agenet 5/6, 376-517 (UniProt Q500V5); test: ITC; settings: reference: H3K9me2 peptide; sites S10
# [4] = target: ADCP1 (Agenet Domain Containing Protein 1) Agenet 1/2, 31-177 (UniProt Q500V5); test: ITC; settings: reference: H3K9me2 peptide; sites S10
# [5] = target: ADCP1 (Agenet Domain Containing Protein 1) Agenet 3/4, 201-355 (UniProt Q500V5); test: ITC; settings: reference: H3K9me2 peptide; sites S10
# [6] = target: T1, ADCP1 Agenet 1/2 domain (amino acids …); test: ITC
# [7] = test system: H3(S10A)K9me3 NA with ADCP1; test: Aurora B treatment of phase-separated ADCP1-H3(S10A)K9me3 NA; format: biochemical; settings: kinase 5 µM, ATP 50 µM, 30 °C, 5 h
# Experimental: (§1) Aurora B kinase, ATP (NEB, P0756S) and 10 × kinase buffer (CST, 9802S) were added to the nucleosome array. The final concentration of kinase was 5 µM and ATP was 50 µM. The mixture was incubated at 30 °C for 5 h. The reaction product was detected by the ph-H3S10 antibody (Abcam, ab5176).
# (§2) ADCP1 Agenet domain 1-4 (1-355 aa) and Agenet 3-6 (201–517 aa) proteins were stored in 20 mM HepesNa, pH 7.4, 150 mM NaCl. A 1:1 molar ratio of Alex 488 (Invitrogen, A10254, dissolved in DMSO) was added into ADCP1 and the mixture was incubated at room temperature for 1 h. The excess dye was removed using MicroSpin G-50 column (GE Healthcare, 27533001). DAPI was added to native/K9me3/K9me3S10A 12× nucleosome array to label the DNA. Protein and nucleosome array were diluted to a proper concentration. Equal volume of nucleosome array and ADCP1 were mixed in a 384 well glass bottom plate (Cellvis, P384-1.5H-N). For Fig. 6a, the concentrations of three proteins were 30 μM. […] The sample volume in each well was 5–10 μL. After 1 h incubation at room temperature, images were captured by Nikon A1RMP confocal microscope with 100 × oil objective. For FRAP analysis, mean fluorescence intensities from five regions of interests (ROIs) of time-lapse images were computed. ROI-1 was the bleached droplet, ROI-2 was a non-bleached droplet, ROI-3 was a background region. NIS-element software was used for data analysis.
# [8] = test system: ADCP1-H3K9me3 NA; test: Aurora B treatment of phase-separated ADCP1-H3K9me3 NA; format: biochemical; settings: kinase 5 µM, ATP 50 µM, 30 °C, 5 h
# Experimental: as §1, §2
Molecule,Ka [1],stoichiometry N [1],Ka [2],stoichiometry N [2],other results
H3(1-15)K4me3 peptide,24000 M⁻¹,0.971,19000 M⁻¹,1.12,
H3(1-15)K9me2 peptide,,,333000 M⁻¹,1.01,
H3(1-15)K9me2S10ph peptide,10000 M⁻¹,1,,,
histone H3 (synthetic H3 peptides) 1-15 (from UniProt P59226) H3K9me2S10ph peptide,,,,,binding against the reference [3]: weaker; binding against the reference [4]: weaker; binding against the reference [5]: weaker
"ARTKQTARKSTGGKA (trimethyl-Lys9, phospho-Ser10 (mature H3 numbering; precursor 10 and 11). Taken as the ITC peptide of Fig. 1e with limits 1-15 from the paper's other H3K9me peptides; the text uses the same name for the Aurora B-treated MLA nucleosome array, which is a different molecule) [H3K9me3S10ph]",,,,,Kd [6]: 42.5 µM
"Aurora B: human Aurora B kinase, causes S10 phosphorylation (protein, UniProt Q96GD4 1-344, looked up) Aurora kinase B: MAQKENSYPWPYGRQTAPSGLSTLPQRVLRKEPVTPSALVLMSRSNVQPTAAPGQKVMENSSGTPDILTRHFTIDDFEIGRPLGKGKFGNVYLAREKKSHFIVALKVLFKSQIEKEGVEHQLRREIEIQAHLHHPNILRLYNYFYDRRRIYLILEYAPRGELYKELQKSCTFDEQRTATIMEELADALMYCHGKKVIHRDIKPENLLLGLKGELKIADFGWSVHAPSLRRKTMCGTLDYLPPEMIEGRMHNEKVDLWCIGVLCYELLVGNPPFESASHNETYRRIVKVDLKFPASVPMGAQDLISKLLRHNPSERLPLAQVSAHPWVRANSRRVLPPSALQSVA",,,,,"dissolution of phase transition by Aurora B, H3(S10A)K9me3 NA [7]: not the latter can be dissolved by Aurora B treatment; dissolution of phase transition by Aurora B, H3K9me3 NA [8]: phase transition of the former but not the latter can be dissolved by Aurora B treatment"
